Assay [1] deals with T1, cyno IL-19 (cyno).
T1 chain: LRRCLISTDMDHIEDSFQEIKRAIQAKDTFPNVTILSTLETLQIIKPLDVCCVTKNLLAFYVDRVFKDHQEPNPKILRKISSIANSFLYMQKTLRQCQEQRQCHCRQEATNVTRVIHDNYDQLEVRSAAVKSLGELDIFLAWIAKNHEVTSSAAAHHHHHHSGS
Nature of the assay: cell-based or functional assay.

Assay [2] concerns the target T2, human IL-19 (human, UniProt Q9UHD0 25-177).
T2 sequence: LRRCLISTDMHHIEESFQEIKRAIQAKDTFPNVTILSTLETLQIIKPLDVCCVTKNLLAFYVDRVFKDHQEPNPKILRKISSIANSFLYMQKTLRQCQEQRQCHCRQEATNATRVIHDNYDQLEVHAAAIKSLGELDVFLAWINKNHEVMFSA
Nature of the assay: cell-based or functional assay.

The target in assay [3] is T2, human IL-19. Nature of the assay: MSD-SET solution equilibrium titration, 10 pM fixed biotinylated human IL-19, 37 C, mean of 3 experiments. The text has this:
A Meso Scale Discovery Solution Equilibrium Titration (MSD-SET) assay, measured with a SECTOR® Imager 6000 (Meso Scale Diagnostics), is used to assess binding of exemplified IL-19 antibodies of the present invention to biotinylated human IL-19 (having the amino acid sequence set for in SEQ ID NO: 1).
Except as noted, all the reagents and materials are from Meso Scale Diagnostics (Rockville, Maryland). Recombinant human IL-19 reagents are biotinylated using the EZ-link sulfo-NHS-Biotin kit (Thermo Cat #A39257). Briefly, 20 pM biotinylated human IL-19 is mixed in a 1:1 ratio with a 3-fold dilution series of exemplified antibody samples of the present invention (mAb 1 and mAb 2) to give a final concentration of: 10 pM biotinylated human IL-19 and a 11-point 3-fold antibody gradient from 1 nM to 0.017 pM. The mix is incubated at 37° C. for 72 hrs. […] After washing three times with wash buffer, 150 μL of 1× Read Buffer T (Cat. #R92TC-1) is added to the well and analyzed on a SECTOR® Imager 6000 (Meso Scale Diagnostics) 5 min after buffer addition. […]
The equilibrium KD is determined by fitting a sigmoidal curve to the electrochemiluminescence (ECL) response vs. log (IL-19 concentration) using assay development tool kit graphed with normalized ECL values.

In assay [4] the target is T1, cyno IL-19. Nature of the assay: cell-based or functional assay.
The target in assay [5] is T2, human IL-19. Nature of the assay: cell-based or functional assay. The source holds these as a separate data set.
The target of a further assay is T3, mouse IL-19 (mouse, UniProt Q8CJ70 25-176, limits assumed).
T3 construct: Used as immunogen and for panning; in the in-house ELISA it is the IL-19 secreted in mouse ear cultures; also called murine IL-19
T3 sequence (looked up): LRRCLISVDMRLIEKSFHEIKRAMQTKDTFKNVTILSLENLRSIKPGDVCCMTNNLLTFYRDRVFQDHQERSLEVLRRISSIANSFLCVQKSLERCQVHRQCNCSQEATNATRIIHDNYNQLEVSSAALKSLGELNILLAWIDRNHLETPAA
Nature of the assay: yeast surface display of single-chain Fab library, panning with mouse IL-19.

B1: Ab1 (antibody, human IgG4 S228P, kappa, F234A L235A, V domains shown)
VH: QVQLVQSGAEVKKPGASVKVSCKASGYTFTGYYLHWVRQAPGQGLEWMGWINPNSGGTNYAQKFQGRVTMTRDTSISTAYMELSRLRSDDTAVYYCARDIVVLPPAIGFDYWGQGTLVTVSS
VL: AIQLTQSPSSLSASVGDRVTITCRASQDIRSDFGWYQQKPGKAPKLLIYAASSLQSGVPSRFSGSGSGTDFTLTISSLQPEDFATYYCLQDYNYPWTFGQGTKVEIKR
notes: Anti-human IL-19 antibody; Detected with anti-human IgG4 reagents in the PK ELISA, so IgG4; also called mAb 1; mAb1
For orientation: Kd means the equilibrium constant for the complex coming apart. Low values mean a tighter complex, high ones a looser complex. With B1, the “IC50 for Cyno IL-19 (IL-19 induced IL20Ra/IL20Rb receptor dimerization signal, U2OS PathHunter cells)” value in the assay with cyno IL-19 [1] was found to be 2.79 nM. Further, in the assay with human IL-19 [2], the “IC50 for human IL-19 (IL-19 induced IL20Ra/IL20Rb receptor dimerization signal, U2OS PathHunter cells)” value is 3.46 nM. This molecule had a Kd in the assay with human IL-19 [3] of 0.0131 nM. The “IC50 with Cyno IL-19 (IL-19 induced phospho-STAT3 signal, A431 cells)” value with cyno IL-19 [4] was determined as 1.82 nM. The “IC50 with human IL-19 (IL-19 induced phospho-STAT3 signal, A431 cells)” value in the assay with human IL-19 [5] was determined as 2.31 nM.

B2: Ab2 (antibody, human IgG4 S228P, kappa, F234A L235A, V domains shown)
VH: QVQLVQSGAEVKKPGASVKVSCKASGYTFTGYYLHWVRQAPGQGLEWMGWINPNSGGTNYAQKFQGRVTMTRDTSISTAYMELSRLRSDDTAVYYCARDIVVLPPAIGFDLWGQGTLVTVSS
VL: AIQLTQSPSSLSASVGDRVTITCRASQDIRSDFGWYQQKPGKAPKLLIYAASSLQSGVPSRFSGSGSGTDFTLTISSLQPEDFATYYCLQDYNYPWTFGQGTKVEIKR
notes: Anti-human IL-19 antibody; also called mAb 2; mAb2
Take B2: the “IC50 for Cyno IL-19 (IL-19 induced IL20Ra/IL20Rb receptor dimerization signal, U2OS PathHunter cells)” value in the assay with cyno IL-19 [1] came to 2.87 nM. The “IC50 for human IL-19 (IL-19 induced IL20Ra/IL20Rb receptor dimerization signal, U2OS PathHunter cells)” value in the assay with human IL-19 [2] is 3.47 nM. For the same molecule, the Kd with human IL-19 [3] amounted to 0.0068 nM. Besides, the “IC50 with Cyno IL-19 (IL-19 induced phospho-STAT3 signal, A431 cells)” value with cyno IL-19 [4] worked out at 1.84 nM. Also, in the assay with human IL-19 [5], the “IC50 with human IL-19 (IL-19 induced phospho-STAT3 signal, A431 cells)” value is 2.21 nM.

B3: anti-murine IL-19 Ab mAb4 (antibody, V domains shown)
VH: QEQLKESGGGLVQPGGSLKLSCKASGFPLSSYGFSWVRQAPGKGLEWIGYLDPVFGSTLSAHTVNGRLTISSDNAQNTLYLQLNSLTAADTATYFCARGIGYVYYGYTYDLWGPGTLVTVSS
VL: DIVMTQTPASVEAAVGGTVTIKCSASASIYEYLSWYQQKPGQRPKLLIYGASVLTDGVSSRFKGSGSGTEFTLTISDLEAADAATYYCQSYNDGSSSGDAHVFGGGTEVVVK
notes: also called anti-murine IL-19 Ab4
For the molecule B3, in the assay with mouse IL-19, the binding result is given as “binds”.

B4: anti-murine IL-19 Ab mAb 3 (antibody, V domains shown)
VH: QQLEESGGGLAKPEGSLTLTCKTSGFDLSSTYYMSWVRQAPGKGLEWIASIVTSGRSGASYYANWAKGRFTISKTSSTTVTLQMTSLAAADTASYFCVRDLPAPTDDRGLWGPGTLVVVSS
VL: AQVLTQTPSSVSEPVGGTVTINCQASESVYNKNWLSWFQQKPGQPPKLLIYDSSDLASGVPSRFKGSGSGTHFTLTISDVQCGDAATYYCGGSYTDTYVFGGGTEVVVK
notes: also called anti-murine IL-19 Ab3
B4: the binding result with mouse IL-19 is reported as “binds”.

For the origin of these results see patent publication US20250270309A1 (Eli Lilly, published 2025).
